Reference: paper PMC6885550
Where two headings read alike, the source gives them in different places.

Legend:
Assay in all cases: FRET or BRET
[1] = biological target: YFP-DWORF (dwarf open reading frame) (UniProt P0DN84)
[2] = biological target: YFP-DWORF (dwarf open reading frame) (UniProt P0DN84); remark: listed apart in the source
[3] = biological target: YFP-sarcolipin (SLN) (UniProt O00631)
[4] = biological target: YFP-sarcolipin (SLN) (UniProt O00631); remark: listed apart in the source

Chain of YFP-sarcolipin (SLN) (from UniProt O00631 1-31) (natural protein) (O00631 whole entry): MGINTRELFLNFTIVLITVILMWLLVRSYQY

Substance	percent of donors in FRET (oligomer subpopulation) [1]	percent of donors in FRET (oligomer subpopulation) [2]	stoichiometry N [3]	stoichiometry N [4]
YFP-DWORF (dwarf open reading frame) (from UniProt P0DN84 1-35) (natural protein)	20%	23.4%	–	–
YFP-sarcolipin (SLN) (from UniProt O00631 1-31) (natural protein)	–	–	> 2	2
